Patent US20190144550A1

Experiments:
[1] = molecular target: wild-type EGFR expressed on cells (human), P00533; experiment: flow cytometry, A431 cells; conditions: remark: other sources report otherwise
[2] = molecular target: wild-type EGFR expressed on cells (human), P00533; experiment: flow cytometry, F98-EGFRwt cells; conditions: remark: other sources report otherwise

% positive [1]: 1.1%
MFI [1]: 294
MFI [2]: 371
B1: 34E7 (antibody, V domains shown)
VH: EVNLVESGGGLVKPGGSLRLSCEASGFTFSYAWMSWVRQAPGKGLEWVGRIKSINDGGATDYASPVRNRFTISRDDSRNMLYLEMHSLKTEDTAVYYCTTIPGNDAFDMWGQGTLVTVSS
VL: DIVLTQSPLSLSVTPGEPASISCRSTQSLLYSNGKNYLDWFLHKPGQSPQLLIFLGSIRASGVPDRFSGSGSGIDFILKISRVEAEDVGVYYCMQAQQTPITFGQGTRLEIK
